{"source": "paper PMC11228984", "proteins": {"B1": {"name": "TREK2: N144Q (protein)", "parent chain": "MFFLYTDFFLSLVAVPAAAPVCQPKSATNGQPPAPAPTPTPRLSISSRATVVARMEGTSQGGLQTVMKWKTVVAIFVVVVVYLVTGGLVFRALEQPFESSQKNTIALEKAEFLRDHVCVSPQELETLIQHALDADNAGVSPIGNSSNNSSHWDLGSAFFFAGTVITTIGYGNIAPSTEGGKIFCILYAIFGIPLFGFLLAGIGDQLGTIFGKSIARVEKVFRKKQVSQTKIRVISTILFILAGCIVFVTIPAVIFKYIEGWTALESIYFVVVTLTTVGFGDFVAGGNAGINYREWYKPLVWFWILVGLAYFAAVLSMIGDWLRVLSKKTKEEVGEIKAHAAEWKANVTAEFRETRRRLSVEIHDKLQRAATIRSMERRRLGLDQRAHSLDMLSPEKRSVFAALDTGRFKASSQESINNRPNNLRLKGPEQLNKHGQGASEDNIINKFGSTSRLTKRKNKDLKKTLPEDVQKIYKTFRNYSLDEEKKEEETEKMCNSDNSSTAMLTDCIQQHAELENGMIPTDTKDREPENNSLLEDRN"}}, "assay": "expression and purification from insect cells", "conditions": "glycan lost; control: unmutated TREK2 construct"}
{"protein": "B1", "values": [{"measurement": "expression_or_secretion", "result": "no change"}]}
